Results as given in the RNAGym collection of RNA variant scans (doi:10.7554/elife.80360).

B1: Twister Ribozyme (parent)
chain: AACACUGCCAAUGCCGGUCCCAAGCCCGGAUAAAAGUGGAGGGGGCGG

Variants of: B1
Experiment: self-cleavage, relative activity (ratio to wild type); higher = more cleavage; co-transcriptional

Row | Variant | self-cleavage
1 | C14G G17A | 0.122
2 | C14G G17C | 0.124
3 | C14A G47C | 0.44
4 | C14U G28C | 1.01
5 | C14U G28A | 1.09
6 | C14G C21U | 0.0834
7 | C14U A30C | 1.08
8 | C14U A30U | 1.06
9 | C14U C46U | 1.01
10 | C14U C46G | 1.04
11 | C15A G29A | 0.793
12 | C15A U37A | 0.129
13 | C15A U37C | 0.168
14 | C14G G47A | 0.0923
15 | C15A C25U | 0.436
16 | C15A C25A | 0.0919
17 | C14G C26U | 0.0493
18 | C14U A33U | 1.07
19 | C14U G48C | 1.26
20 | C14U G48A | 1.1
21 | C15A C27G | 0.0735
22 | C14U G47A | 0.947
23 | C14G G42A | 0.0786
24 | C14G G42U | 0.0931

Row | Variant | self-cleavage
25 | C14U C26U | 0.403
26 | C15A A22C | 0.533
27 | C14G C15U | 0.401
28 | C14G C19U | 0.426
29 | C14U U31C | 1.22
30 | C14U U37A | 0.83
31 | C14U U37G | 0.845
32 | C15A U18G | 0.089
33 | C14G G24C | 0.0845
34 | C15A G47C | 0.253
35 | C15A G47U | 0.332
36 | C15A G41C | 0.16
37 | C15A G41A | 0.189
38 | C15G A23G | 0.0653
39 | C14U A32C | 1.03
40 | C14U A32G | 1.07
41 | C15A C20G | 0.0632
42 | C14U U18A | 0.635
43 | C14U U18C | 0.594
44 | C14G G44C | 0.129
45 | C14U G36U | 0.421
46 | C14U G36C | 0.464
47 | C15G A32G | 0.0996
48 | C15G A32U | 0.0633

Row | Variant | self-cleavage
49 | C14G G38C | 0.159
50 | C14G G38U | 0.111
51 | C14U A23G | 0.666
52 | C14U A23U | 0.722
53 | C14U A23C | 0.51
54 | C15A A34G | 0.422
55 | C15A A34C | 0.156
56 | C14G G29U | 0.192
57 | C14G G29C | 0.228
58 | C15A A30G | 0.492
59 | C14U C15G | 0.36
60 | C14U G44U | 1.15
61 | C14U G44C | 0.983
62 | C14U G44A | 1.08
63 | C14U A34U | 0.951
64 | C14U A34C | 0.461
65 | C14G G48U | 0.128
66 | C14G A35U | 0.125
67 | C14G A34C | 0.0831
68 | C14G A34U | 0.159
69 | C14G C20U | 0.25
70 | C14G C20G | 0.111
71 | C14U C20G | 0.2
72 | C15A A33G | 0.578

Row | Variant | self-cleavage
73 | C15A A33U | 0.541
74 | C15A G28A | 0.865
75 | C15A G42U | 0.14
76 | C15A G42C | 0.182
77 | C14U G16U | 0.778
78 | C15A G36A | 0.165
79 | C14G A23U | 0.0448
80 | C14G A23C | 0.0556
81 | C15A G38A | 0.4
82 | C15A G38C | 0.452
83 | C14G C25A | 0.0733
84 | C14G U37G | 0.0706
85 | C14G G16U | 0.138
86 | C14U C25G | 0.627
87 | C15A A35G | 0.285
88 | C15A A35C | 0.546
89 | C15A A35U | 0.774
90 | C15A C26A | 0.0686
91 | C15A C26G | 0.108
92 | C14U G38A | 1.02
93 | C14U G38C | 0.909
94 | C15A A40U | 0.116
95 | C15G A33C | 0.0859
96 | C14G A33U | 0.172

Row | Variant | self-cleavage
97 | C14G A22G | 0.0913
98 | C14U G42C | 0.59
99 | C14U G42U | 0.486
100 | C14G G43U | 0.08
101 | C14G G43C | 0.0465
102 | C15A G24C | 0.0841
103 | C15A G24A | 0.0695
104 | C14U C19G | 0.518
105 | C15A G48U | 0.573
106 | C15A G48C | 0.715
107 | C15A G48A | 0.528
108 | C14U G29U | 1.09
109 | C14U G29A | 1.06
110 | C14A U18C | 0.371
111 | C14A U18G | 0.0811
112 | C14A U18A | 0.485
113 | C15A C21G | 0.0777
114 | C15A G17C | 0.0439
115 | C15A A23G | 0.141
116 | C15A A23U | 0.0658
117 | C14A U37G | 0.725
118 | C14A U37C | 0.619
119 | C14G C46G | 0.101
120 | C14G C46U | 0.175

Row | Variant | self-cleavage
121 | C15A G45A | 0.478
122 | C15A G45C | 0.352
123 | C14U A22G | 0.319
124 | C14U A22C | 1.15
125 | C15A G16U | 0.34
126 | C15A G16A | 0.351
127 | C15A G16C | 0.264
128 | C15G A22C | 0.0849
129 | C14U G41A | 0.698
130 | C14U G41U | 0.719
131 | C14U G41C | 0.343
132 | C15A G39A | 0.156
133 | C15A C46A | 0.565
134 | C14U C27G | 0.108
135 | C14G A32C | 0.12
136 | C14G A32G | 0.117
137 | C14G A30U | 0.146
138 | C14U A40G | 0.21
139 | C15G A30C | 0.0706
140 | C15G A30G | 0.123
141 | C14G G28A | 0.162
142 | C14G G28C | 0.106
143 | C15A G43A | 0.299
144 | C15A U31A | 0.706

Row | Variant | self-cleavage
145 | C15A U31G | 0.76
146 | C14U C21A | 0.108
147 | C14U C21U | 0.141
148 | C14A G48A | 0.868
149 | C14A G48U | 0.887
150 | C14U G39U | 0.28
151 | C14U G39C | 0.198
152 | C14U G39A | 0.509
153 | C14G G41U | 0.111
154 | C14G G41C | 0.0824
155 | C14G G36C | 0.065
156 | C14G G36A | 0.0659
157 | C14G G36U | 0.0782
158 | C15A A32G | 0.583
159 | C15A A32U | 0.667
160 | C15A A32C | 0.529
161 | C14U G17C | 0.152
162 | C14U G17U | 0.373
163 | C14U G43C | 0.227
164 | C14U G43A | 0.369
165 | C14U G43U | 0.526
166 | C14A U31C | 0.913
167 | C14A U31G | 0.942
